Measured values: paper PMC10718521, “Complexity of αvβ6-integrin targeting RGD peptide trimers: emergence of non-specific binding by synergistic interaction” (RSC Medicinal Chemistry, 2023)
Where a SMILES comes first, the peptide text is derived from it. [ ]: non-standard residue; d: D form. The star is where a group is joined. NMeK = CN[C@@H](CCCCN)C(=O)O; Pent4ynoyl = C#CCCC(=O)*

Tests used:
[1] = in vivo; design: species or system mice; conditions: CB17 SCID, mouse, total radioactivity
Description: The biodistribution of all ^68Ga-labeled peptide trimers was investigated in severe combined immunodeficiency (SCID) mice bearing subcutaneous xenografts of the αvβ6-integrin expressing human lung adenocarcinoma cell line H2009 on their right shoulders.
(§1) Unless otherwise noted, the materials and the instrumentation used (analytical and preparative HPLC, ESI-MS, gamma counter, centrifuge), and the experimental procedures (^68Ga radiolabeling and radio-TLC for quality control, determination of log D7.4, cultivation of H2009 human lung adenocarcinoma cells, generation of tumor xenografts in CB17 SCID mice, small-animal PET, and biodistribution) were described before.[19] All animal experiments have been carried out according to applicable law and institutional guidelines of Technical University of Munich, and were approved by the responsible local authority (Regierung von Oberbayern). The H2009 cells were regularly authenticated and tested for mycoplasma contamination. The affinities of the pentynoic amide functionalized peptides were determined employing a well-established ELISA protocol on immobilized integrins.[36] TRAP-triazide,[38]FF (previously termed AvB6),[32] and YY (also referred to as Tyr2-alkyne)[33] were synthesized as described previously. RP-HPLC for assessment of compound polarity was done on a 150 × 4.6 mm ReproSil-Pur 120 C18-AQ 5 μm column, with a flow of 0.75 mL min^−1 and a gradient of 10–50% MeCN in water, both containing 0.1% trifluoroacetic acid, within 15 min. The required ^natGa-complexes of the peptide trimers were synthesized by reaction with equimolar amounts of aq. GaCl3 as described.[19]

[2] = assay type: physicochemical; conditions: pH 7.4
Procedure: The trimers were labeled with ^68Ga for biodistribution and small-animal PET experiments employing a fully automated method.[39] Non-radioactive reference compounds were obtained by complexation of equimolar amounts of ^natGa^3+ in form of the aq. chloride solution.[39] The polarity of the ^68Ga or ^natGa^3+ containing conjugates, respectively, was assessed by two established proxies, namely the n-octanol/water distribution coefficient at pH 7.4, log D7.4, and the retention time tR on a reverse-phase HPLC column with a suitable liquid-phase gradient (10–50% acetonitrile in water with 0.1% trifluoroacetic acid) (see Fig. 2a). […] A measurable decrease of the log D7.4 was only observed for ≥3 Tyr. […]
as §1

[3] = biological target: αvβ8-integrin (Homo sapiens, UniProt P06756+P26012); assay: ELISA on immobilized integrins, αvβ8; assay type: binding; conditions: read-out: IC50 (95% confidence interval) αvβ8
Procedure: (§2) The integrin affinities of the monomers were determined using an established ELISA protocol,[36] and expressed as 50% inhibitory concentrations (IC50, Table 1).
as §1, with “RP-HPLC for assessment of compound polarity was done on a 150 × 4.6 mm ReproSil-Pur 120 C18-AQ 5 μm column, with a flow of 0.75 mL min^−1 and a gradient of 10–50% MeCN in water, both containing 0.1% trifluoroacetic acid, within 15 min. The required ^natGa-complexes of the peptide trimers were synthesized by reaction with equimolar amounts of aq. GaCl3 as described.[19]” left out

[4] = biological target: α5β1-integrin (Homo sapiens, UniProt P05556+P08648); assay: ELISA on immobilized integrins, α5β1; assay type: binding; conditions: read-out: IC50 (95% confidence interval) α5β1
Procedure: as §2
as §1, with “RP-HPLC for assessment of compound polarity was done on a 150 × 4.6 mm ReproSil-Pur 120 C18-AQ 5 μm column, with a flow of 0.75 mL min^−1 and a gradient of 10–50% MeCN in water, both containing 0.1% trifluoroacetic acid, within 15 min. The required ^natGa-complexes of the peptide trimers were synthesized by reaction with equimolar amounts of aq. GaCl3 as described.[19]” left out

[5] = biological target: αvβ6-integrin (Homo sapiens, UniProt P06756+P18564); assay: ELISA on immobilized integrins, αvβ6; assay type: binding
Procedure: as §2, §1

[6] = biological target: αvβ3-integrin (Homo sapiens, UniProt P05106+P06756); assay: ELISA on immobilized integrins, αvβ3; assay type: binding; conditions: read-out: IC50 (95% confidence interval) αvβ3
Procedure: as §2
as §1, with “RP-HPLC for assessment of compound polarity was done on a 150 × 4.6 mm ReproSil-Pur 120 C18-AQ 5 μm column, with a flow of 0.75 mL min^−1 and a gradient of 10–50% MeCN in water, both containing 0.1% trifluoroacetic acid, within 15 min. The required ^natGa-complexes of the peptide trimers were synthesized by reaction with equimolar amounts of aq. GaCl3 as described.[19]” left out

[7] = tumor/organ ratio Heart (myocard)
[8] = tumor/organ ratio Large intestine (empty)
[9] = tumor/organ ratio Small intestine (empty)
[10] = tumor/organ ratio Stomach (empty)

αvβ6-integrin, sequence (P06756 31-992 limits assumed): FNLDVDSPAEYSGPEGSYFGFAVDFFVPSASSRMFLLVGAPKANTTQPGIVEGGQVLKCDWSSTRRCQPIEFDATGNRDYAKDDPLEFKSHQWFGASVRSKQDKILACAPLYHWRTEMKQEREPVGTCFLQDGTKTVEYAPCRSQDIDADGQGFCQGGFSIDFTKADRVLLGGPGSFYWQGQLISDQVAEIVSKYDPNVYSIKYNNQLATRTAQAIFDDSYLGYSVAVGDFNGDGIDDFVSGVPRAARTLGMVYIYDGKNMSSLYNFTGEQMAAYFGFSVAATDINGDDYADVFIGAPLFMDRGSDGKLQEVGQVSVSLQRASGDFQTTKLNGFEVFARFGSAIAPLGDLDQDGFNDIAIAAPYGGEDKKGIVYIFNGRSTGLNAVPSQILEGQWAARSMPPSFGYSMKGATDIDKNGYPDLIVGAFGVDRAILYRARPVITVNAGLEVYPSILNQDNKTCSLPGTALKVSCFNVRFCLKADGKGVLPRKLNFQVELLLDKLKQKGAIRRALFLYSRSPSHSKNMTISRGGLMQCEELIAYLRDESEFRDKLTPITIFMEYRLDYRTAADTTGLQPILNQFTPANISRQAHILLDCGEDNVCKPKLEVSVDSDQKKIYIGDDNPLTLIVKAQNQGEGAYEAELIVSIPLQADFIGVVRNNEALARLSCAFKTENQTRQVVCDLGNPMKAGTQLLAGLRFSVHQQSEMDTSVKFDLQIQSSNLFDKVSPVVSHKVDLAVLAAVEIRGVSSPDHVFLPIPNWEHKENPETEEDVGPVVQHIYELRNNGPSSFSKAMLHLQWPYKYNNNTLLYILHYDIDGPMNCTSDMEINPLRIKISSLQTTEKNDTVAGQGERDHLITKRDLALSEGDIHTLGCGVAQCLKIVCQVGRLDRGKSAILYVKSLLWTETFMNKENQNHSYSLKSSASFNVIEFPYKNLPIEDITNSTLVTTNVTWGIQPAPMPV
αvβ6-integrin, sequence (P18564 22-707 limits assumed): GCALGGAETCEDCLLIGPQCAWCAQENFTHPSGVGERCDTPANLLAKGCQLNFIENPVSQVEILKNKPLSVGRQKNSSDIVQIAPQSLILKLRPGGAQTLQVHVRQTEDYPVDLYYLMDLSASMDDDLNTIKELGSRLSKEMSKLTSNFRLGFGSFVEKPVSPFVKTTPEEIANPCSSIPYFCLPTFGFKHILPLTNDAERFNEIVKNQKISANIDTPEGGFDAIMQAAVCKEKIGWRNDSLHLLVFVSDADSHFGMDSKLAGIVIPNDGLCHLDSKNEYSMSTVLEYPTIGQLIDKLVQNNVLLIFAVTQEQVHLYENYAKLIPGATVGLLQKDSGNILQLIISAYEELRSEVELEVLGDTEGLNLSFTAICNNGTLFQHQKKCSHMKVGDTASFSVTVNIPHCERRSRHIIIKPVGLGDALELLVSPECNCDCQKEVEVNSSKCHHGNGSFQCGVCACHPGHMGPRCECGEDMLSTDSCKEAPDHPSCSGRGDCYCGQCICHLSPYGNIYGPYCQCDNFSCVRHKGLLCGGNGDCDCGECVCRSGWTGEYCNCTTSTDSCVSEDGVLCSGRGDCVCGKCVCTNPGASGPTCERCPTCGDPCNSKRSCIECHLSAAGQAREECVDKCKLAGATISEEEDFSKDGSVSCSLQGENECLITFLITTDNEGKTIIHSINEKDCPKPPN
α5β1-integrin, sequence (P08648 42-995 limits assumed): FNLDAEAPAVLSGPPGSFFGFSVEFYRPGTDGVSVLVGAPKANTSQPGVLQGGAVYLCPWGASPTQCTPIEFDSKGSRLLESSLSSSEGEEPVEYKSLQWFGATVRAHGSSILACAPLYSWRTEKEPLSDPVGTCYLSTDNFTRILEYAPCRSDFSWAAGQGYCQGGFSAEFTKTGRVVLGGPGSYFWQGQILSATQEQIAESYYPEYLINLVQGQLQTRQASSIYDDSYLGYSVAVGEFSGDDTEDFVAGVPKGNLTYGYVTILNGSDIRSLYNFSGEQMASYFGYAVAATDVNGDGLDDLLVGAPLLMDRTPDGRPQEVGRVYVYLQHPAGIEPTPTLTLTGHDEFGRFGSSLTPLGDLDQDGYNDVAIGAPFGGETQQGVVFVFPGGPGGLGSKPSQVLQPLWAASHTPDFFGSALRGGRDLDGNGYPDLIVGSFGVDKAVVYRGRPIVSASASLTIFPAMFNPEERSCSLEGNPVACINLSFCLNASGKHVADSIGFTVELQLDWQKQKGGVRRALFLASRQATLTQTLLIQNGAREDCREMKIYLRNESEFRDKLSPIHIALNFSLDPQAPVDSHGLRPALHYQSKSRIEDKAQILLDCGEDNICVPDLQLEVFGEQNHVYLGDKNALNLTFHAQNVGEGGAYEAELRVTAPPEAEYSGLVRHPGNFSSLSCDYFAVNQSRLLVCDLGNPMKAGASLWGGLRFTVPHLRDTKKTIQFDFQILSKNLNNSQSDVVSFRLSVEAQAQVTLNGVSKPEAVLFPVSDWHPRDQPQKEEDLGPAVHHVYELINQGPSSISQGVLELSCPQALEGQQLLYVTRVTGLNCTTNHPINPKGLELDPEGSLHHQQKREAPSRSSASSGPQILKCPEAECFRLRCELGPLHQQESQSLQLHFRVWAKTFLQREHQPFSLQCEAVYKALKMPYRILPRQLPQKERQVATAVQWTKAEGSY
α5β1-integrin, sequence (P05556 21-728 limits assumed): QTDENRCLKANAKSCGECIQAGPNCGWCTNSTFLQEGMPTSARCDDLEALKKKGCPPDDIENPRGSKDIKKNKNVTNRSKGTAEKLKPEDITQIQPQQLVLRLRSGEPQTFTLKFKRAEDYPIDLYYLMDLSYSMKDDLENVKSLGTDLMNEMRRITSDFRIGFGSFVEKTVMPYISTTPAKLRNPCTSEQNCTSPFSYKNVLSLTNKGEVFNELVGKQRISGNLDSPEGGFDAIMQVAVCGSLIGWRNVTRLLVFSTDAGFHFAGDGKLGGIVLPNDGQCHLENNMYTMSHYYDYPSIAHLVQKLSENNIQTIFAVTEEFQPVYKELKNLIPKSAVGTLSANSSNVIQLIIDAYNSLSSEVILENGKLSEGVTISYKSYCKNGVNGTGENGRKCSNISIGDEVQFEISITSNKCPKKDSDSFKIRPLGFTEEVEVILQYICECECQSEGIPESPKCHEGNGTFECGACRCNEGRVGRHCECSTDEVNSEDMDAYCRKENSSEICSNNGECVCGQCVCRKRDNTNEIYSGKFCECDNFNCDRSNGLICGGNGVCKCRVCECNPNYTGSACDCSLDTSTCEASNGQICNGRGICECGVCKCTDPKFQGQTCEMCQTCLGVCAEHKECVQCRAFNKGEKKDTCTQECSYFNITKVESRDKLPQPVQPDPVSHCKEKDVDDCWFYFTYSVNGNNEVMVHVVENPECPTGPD
αvβ8-integrin, sequence (P06756 31-992 limits assumed): as the sequence (P06756 31-992 limits assumed) above
αvβ8-integrin, sequence (P26012 43-684 limits assumed): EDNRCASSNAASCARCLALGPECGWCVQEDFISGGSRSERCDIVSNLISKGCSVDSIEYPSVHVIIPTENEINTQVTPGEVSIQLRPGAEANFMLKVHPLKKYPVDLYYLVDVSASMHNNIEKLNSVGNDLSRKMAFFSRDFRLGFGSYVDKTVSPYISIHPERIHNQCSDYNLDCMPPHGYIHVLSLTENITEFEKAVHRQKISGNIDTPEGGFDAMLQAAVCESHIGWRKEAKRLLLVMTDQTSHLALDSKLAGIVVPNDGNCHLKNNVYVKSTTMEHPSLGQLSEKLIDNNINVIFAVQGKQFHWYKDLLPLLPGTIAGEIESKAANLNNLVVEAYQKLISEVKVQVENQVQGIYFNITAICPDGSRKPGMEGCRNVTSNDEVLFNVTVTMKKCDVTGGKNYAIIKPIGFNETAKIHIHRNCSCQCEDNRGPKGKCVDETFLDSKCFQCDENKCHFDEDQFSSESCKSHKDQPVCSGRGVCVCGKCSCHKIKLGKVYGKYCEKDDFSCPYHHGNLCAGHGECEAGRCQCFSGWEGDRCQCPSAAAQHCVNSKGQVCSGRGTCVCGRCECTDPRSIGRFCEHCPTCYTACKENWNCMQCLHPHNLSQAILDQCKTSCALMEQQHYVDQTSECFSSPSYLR

Row | SMILES | tissue uptake at 1.5 h ([1]; Adrenals uptake) [%ID/g] | tissue uptake at 1.5 h ([1]; Blood uptake) [%ID/g] | tissue uptake at 1.5 h ([1]; Heart (myocard) uptake) [%ID/g] | tissue uptake at 1.5 h ([1]; Kidneys uptake) [%ID/g] | tissue uptake at 1.5 h ([1]; Large intestine (empty) uptake) [%ID/g] | tissue uptake at 1.5 h ([1]; Liver uptake) [%ID/g] | tissue uptake at 1.5 h ([1]; Lung uptake) [%ID/g] | tissue uptake at 1.5 h ([1]; Muscle uptake) [%ID/g] | tissue uptake at 1.5 h ([1]; Pancreas uptake) [%ID/g] | tissue uptake at 1.5 h ([1]; Small intestine (empty) uptake) [%ID/g] | tissue uptake at 1.5 h ([1]; Spleen uptake) [%ID/g] | tissue uptake at 1.5 h ([1]; Stomach (empty) uptake) [%ID/g] | tissue uptake at 1.5 h ([1]; Tumor H2009 uptake) [%ID/g] | tissue to tissue ratio at 1.5 h ([1]; tumor/organ ratio Adrenals) | tissue to tissue ratio at 1.5 h ([1]; tumor/organ ratio Blood) | tissue to tissue ratio at 1.5 h [1, 7] | tissue to tissue ratio at 1.5 h ([1]; tumor/organ ratio Kidneys) | tissue to tissue ratio at 1.5 h [1, 8] | tissue to tissue ratio at 1.5 h ([1]; tumor/organ ratio Liver) | tissue to tissue ratio at 1.5 h ([1]; tumor/organ ratio Lung) | other results
1 | CC(C)C[C@@H]1NC(=O)[C@H](CC(=O)O)NC(=O)CNC(=O)[C@H](CCCNC(=N)N)NC(=O)[C@H](Cc2ccccc2)NC(=O)[C@H](CCCCNC(=O)CCc2cn(CCCNC(=O)CCP(=O)(O)CN3CCN(CP(=O)(O)CCC(=O)NCCCn4cc(CCC(=O)NCCCC[C@H]5C(=O)N[C@@H](Cc6ccc(O)cc6)C(=O)N[C@@H](CCCNC(=N)N)C(=O)NCC(=O)N[C@@H](CC(=O)O)C(=O)N[C@@H](CC(C)C)C(=O)N[C@@H](C)C(=O)N[C@@H](Cc6ccccc6)C(=O)N6CCC[C@@H]6C(=O)N5C)nn4)CCN(CP(=O)(O)CCC(=O)NCCCn4cc(CCC(=O)NCCCC[C@H]5C(=O)N[C@@H](Cc6ccc(O)cc6)C(=O)N[C@@H](CCCNC(=N)N)C(=O)NCC(=O)N[C@@H](CC(=O)O)C(=O)N[C@@H](CC(C)C)C(=O)N[C@@H](C)C(=O)N[C@@H](Cc6ccccc6)C(=O)N6CCC[C@@H]6C(=O)N5C)nn4)CC3)nn2)N(C)C(=O)[C@H]2CCCN2C(=O)[C@H](Cc2ccccc2)NC(=O)[C@H](C)NC1=O (68Ga complex, metal not drawn) [Y2Y] | 1.07 ± 0.27 | 1.91 ± 0.49 | 0.85 ± 0.16 | 80.8 ± 5.12 | 3.89 ± 0.73 | 2.59 ± 0.35 | 7.02 ± 1.34 | 0.63 ± 0.12 | 0.44 ± 0.07 | 2.23 ± 0.41 | 4.36 ± 0.79 | 6.55 ± 1.48 | 7.93 ± 0.28 | 7.8 ± 1.7 | 4.4 ± 1.1 | 9.6 ± 1.8 | 0.1 | 2.1 ± 0.4 | 3.1 ± 0.3 | 1.2 ± 0.2 | tissue to tissue ratio at 1.5 h ([1]; tumor/organ ratio Muscle): 13 ± 2.5; tissue to tissue ratio at 1.5 h ([1]; tumor/organ ratio Pancreas): 18.2 ± 2.3; tissue to tissue ratio at 1.5 h [1, 9]: 3.6 ± 0.7; tissue to tissue ratio at 1.5 h ([1]; tumor/organ ratio Spleen): 1.9 ± 0.4; tissue to tissue ratio at 1.5 h [1, 10]: 1.3 ± 0.3; log D7.4 [2]: −1.4 to −1.5; logD [2]: -1.5 ± 0.1
2 | CC(C)C[C@@H]1NC(=O)[C@H](CC(=O)O)NC(=O)CNC(=O)[C@H](CCCNC(=N)N)NC(=O)[C@H](Cc2ccccc2)NC(=O)[C@H](CCCCNC(=O)CCc2cn(CCCNC(=O)CCP(=O)(O)CN3CCN(CP(=O)(O)CCC(=O)NCCCn4cc(CCC(=O)NCCCC[C@H]5C(=O)N[C@@H](Cc6ccccc6)C(=O)N[C@@H](CCCNC(=N)N)C(=O)NCC(=O)N[C@@H](CC(=O)O)C(=O)N[C@@H](CC(C)C)C(=O)N[C@@H](C)C(=O)N[C@@H](Cc6ccc(O)cc6)C(=O)N6CCC[C@@H]6C(=O)N5C)nn4)CCN(CP(=O)(O)CCC(=O)NCCCn4cc(CCC(=O)NCCCC[C@H]5C(=O)N[C@@H](Cc6ccccc6)C(=O)N[C@@H](CCCNC(=N)N)C(=O)NCC(=O)N[C@@H](CC(=O)O)C(=O)N[C@@H](CC(C)C)C(=O)N[C@@H](C)C(=O)N[C@@H](Cc6ccc(O)cc6)C(=O)N6CCC[C@@H]6C(=O)N5C)nn4)CC3)nn2)N(C)C(=O)[C@H]2CCCN2C(=O)[C@H](Cc2ccc(O)cc2)NC(=O)[C@H](C)NC1=O (68Ga complex, metal not drawn) [Y3F] | 0.77 ± 0.42 | 0.96 ± 0.3 | 0.62 ± 0.15 | 71.1 ± 15 | 5.15 ± 2.63 | 0.95 ± 0.22 | 4.83 ± 1.54 | 0.66 ± 0.25 | 0.34 ± 0.11 | 2.6 ± 0.9 | 2.38 ± 0.31 | 5.64 ± 1.94 | 6.69 ± 1.21 | 10.3 ± 3.8 | 7.2 ± 1.1 | 10.9 ± 0.8 | 0.1 | 1.6 ± 0.7 | 7.1 ± 0.7 | 1.5 ± 0.3 | tissue to tissue ratio at 1.5 h ([1]; tumor/organ ratio Muscle): 10.9 ± 3; tissue to tissue ratio at 1.5 h ([1]; tumor/organ ratio Pancreas): 20.4 ± 3.1; tissue to tissue ratio at 1.5 h [1, 9]: 2.7 ± 0.5; tissue to tissue ratio at 1.5 h ([1]; tumor/organ ratio Spleen): 2.8 ± 0.4; tissue to tissue ratio at 1.5 h [1, 10]: 1.3 ± 0.3; logD [2]: -1.8 ± 0.1
3 | C#CCCC(=O)NCCCC[C@H]1C(=O)N[C@@H](Cc2ccccc2)C(=O)N[C@@H](CCCNC(=N)N)C(=O)NCC(=O)N[C@@H](CC(=O)O)C(=O)N[C@@H](CC(C)C)C(=O)N[C@@H](C)C(=O)N[C@@H](Cc2ccc(O)cc2)C(=O)N2CCC[C@@H]2C(=O)N1C [FY] (cyclo(FRGDLAY[dP][NMeK](Pent4ynoyl))) |  |  |  |  |  |  |  |  |  |  |  |  |  |  |  |  |  |  |  |  | IC50 [3]: 37 nM; IC50 [4]: 177 nM; IC50 ([5]; ELISA, read-out: IC50 (95% confidence interval) αvβ6): 2.8 nM; αvβ6-selectivity over α5β1 ([5]; IC50-based): 63; αvβ6-selectivity over αvβ3 ([5]; IC50-based): 261; αvβ6-selectivity over αvβ8 ([5]; IC50-based): 13.2; IC50 [6]: 732 nM
